Measurements as given in the domain aggregation screens of Martell et al. (2025).

Assay: soluble fraction after stress (log2 fold change); higher = more stays soluble; pooled small domains, quantitative proteomics
Settings: stress: 75 degC
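Note: 20 min heating vs room temperature control held 20 min.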

Sequence | soluble fraction (log2)
HMKRVVFFNGISWYHRTKELLDDMTTKYGKKGGFATPEEAEKSYWEYEERYKDRQRELQVAYLKN | -1.79
HMKSDEGEIKKIVEEIISKNASVVEDYKKGKEVALQFLVGQGMKATKGSANPELLKKIILENI | 1.01
HMKSDVVFDITDGTVKAMLKFNRSDVTILNNDGKNYYLFTANGEFTFKYQDGSGEYYEKTVYVDWLEDE | -2.25
HMKSFIWKQYTVQITKKNVKNTNVRIKRDNPHVILMSIPYSATYKAGLLALETPHIRHWLDNYERKLKQ | -1.45
HMKSIEVPNLINMTLRKAKIELIDNEFNLDTVIYEYNPNIREGRVSLQIPESGTILKSGSNISIHISKGIP | -1.6
HMKSIPKIKWNSTLENIKNFEYQDNFFESKEMYDLLVSFYKYGFVIIKNIPTNNNFIVKFANSIGS | 0.0519
HMKSISMANGNVQLRINGVLASSLEVAALSPEDIKRVEYHDNPGLRYGEGIDIVLDYITIKRT | -0.754
HMKSISMSKLRHLLQLYVQGRSKKLISEQTGIARNTLKKYIKEFSEAGLSLEALLALSDKELEDLFVK | -2.86
HMKSLPQKLLAYLESQGLTRDEAGEFVKQGLKITSNDVDQIQLLLANTEVIDIKLQEFIAQK | 0.0281
HMKSLVDLEISIVKKDMNYFVLPKINGEPLLMERISASEYKDFQLGKLSKEDIFQKHYPDYSEENIKNGRG | -0.671
HMKSSISKNWNPSKDAIEILTRAGIDQEFLENLIPEFVIYWIERSDVLISYNSKFIEHARLKWAQHTAEIQ | 0.192
HMKSTPMYATAIVNIRSKAGTDSEILGKLNPSEEISVISSENGWSKVSYNGKEAYISSNYLSNAKP | -0.0974
HMKSVFQPIYEDLLSRIQDGRLLPGMPLPSENALAVQYGTSRPTIRRAIGLLVEKSLVIRQPGIGSIVAS | -1.32
HMKTALQENVRAYRLERKWTQQALAEALEVSVGAVSKWESGVSRPELETLMRLAELFGVSTDALLGF | -2.33
HMKTAWDELNEVIEAYRGQESALIEVLHKAQEIMGYLPRDVQEAIAEGLHVPLNKVYGVVSFYHHFSV | 0.449
HMKTERTVRVQDQHLHYTLEEKPIKNVNLRIRPDGSVYVSAPFGTSRTLIDDFVASKSKQILAIQQAQSAM | -0.277
HMKTGIGIVEANGGLRLRSQASTSSDVLSTAHNGDNVVVIRQVGNWYLVNYNLKIGYMHSDYITFKE | -5.04
HMKTGNIIAVSLVWKGKYYMIRMFFPSAARPSRADVQTEIEKVYPGSKLSSFSVSDYEPGQPLLQV | -3.05
HMKTGTTGLIGEIGVVKKALTPEGKVFVHGELWRAVSKTASPEGTLVQVIKINNLVLEVEKV | -2.98
HMKTILEKDQRLAKYISYLIKRKRLSPEQVIEHLKTDDHGYEKYPKSINTIYAAIDKGLIPSVTRQDM | -0.509
HMKTKMTPELTTVIEAQIQKEWSPEQISGWLKKTHPVSVSHQRIYQHIQADRQQGGTLHQHLRQAK | 0.00699
HMKTKTFSPGEIVKIQTRDKSWQGTILESHDPEIILLKLTTGYNIGIRENEIINAKVIEKSKKDVKDAE | 0.258
HMKTKTIMSTGAREDLVKMINEYYYSKNYIITEDNRIYNTKTEKFMDDLSVKFYRGRWKVIRN | -0.852
HMKTLDATQRLKLNGEGIIVFNFGKYVDQPVVEIFKKERGYFAWMMSKDFSQQVKNIITKIHNEEILGK | -3.01
HMKTLKHYFASIAHEFGREEAELMLLSVFKTPFEQRLMLFMKDPALTEAQVQQLDNLVRQRKQGVPLPYIL | -2.68
HMKTLPADPTVKNFSYTVVDGEIYYRENSIMTQIELSDNAKGRVAGMVELRQIVNELIDQQLND | -0.849

Sequence | soluble fraction (log2)
HMKTMEQSYIGRKIILDENVEDSALIKFEGIYWTFKSVSGPLKKGTEVEIIGIEGNKILIKNK | -0.988
HMKTPIEFGSVYNDPVRYVIGMSIKSAESINQAIYDMMKIFGDENNMNKFDSLPDEQAVLDMVNSF | 0.0725
HMKTRIQDLRKELGVTQSELADAVDVTRQTIISLEGGRYKASLVLAHKLAQFFHVTIEELFIFD | -2.32
HMKTRNISGNHEAVWQAVRSRTQAGHPTTRAVIMDDLKAQGLNTQKFSRWLKKLVDDGSVYMDGDTIIMGK | -0.306
HMKTRTVVLKSAGGNKIAVIKIIKEITGLGLVEAKAVADNGGNIKENIPAEEAEAIKTQLTEAGAEVEL | -0.664
HMKTRYPNVYQDEKGKFFYQIFIGTDTNGRKKLKKGRRDALGHPFSSAYQASKEAKRVQALYANVS | -2.02
HMKTSTGSAMYLTLDLAEKYAGQAFTLVHKKADGTFEYLYATADVDGKVKFGPVYELSPFMLVKGQL | -1.66
HMKTSVGSKMMVMANNLSIRKSANLLSEKLADLSKGDMVEYISSTNGWNKVRYNGYVGYVSSYYLKDTGEV | -2.21
HMKTTKDSVFEYIQKELMTNEEYKQGINTNVIAQHFGLQRSNISTILNELVKEDRLEKTNTRPVLYFLPQ | -0.208
HMKTTKRERARAKLIQLLENEDRPAKEIYAGLGDIGVGSRTVEKVKKELQVTTYRSGGSWYWSLPKP | -0.525
HMKTVKPSQIPYSEFLKLVETDKINDVSMVGRNIIGHLDDGSKFKTYTPPNDPTLIEKLSSHNIVINAAPE | 0.0923
HMKTVLDSLLRILDSKELDIVVLRHIVGLTLTEIAKEKDMKKGTVFWMYNRAVKKLRLESERMGL | -2.13
HMKTVPNVEGEKDGTAQSAIESAGLKVGKVTYQYDDNTSKGLVISQSVKGGEKVKPNTAIDLVVSNGPK | -0.117
HMKTYSEAQLKIALESLIENGKKQGYLTFQEINEILPDGIINTQDLKVIISILKETGIVVAKEKPEINIDV | 0.0761
HMKVEFTPAYLKKFKANKNAWKFYEAQTNTYKKQSAWYVISAKQEETRLRRLDLLIYDSENGIHIKPLRR | -2.74
HMKVFTEDEMLEKIKEYLSTNSYINRRVMETQFGLRQNIALKWLKHFTEIGVLRKEGERNSPIYFLNN | -0.356
HMKVKIFNGMKLVTNSTGLTVDGKPAALDESNADAKTYSQGLYVFIVYQSGKIAVMQDGKFLGYA | -3.34
HMKVLNVLESEIVRLFKQGQQKDNIRDNIYKTHGQHYNNKKSFNVVFGRKWNSLLEQGFLES | -1.23
HMKVRDTQYIIEAAISKNVIRKSKNIYYYGTDIIGRSLEDAIASLNDKKNQDIKMTILQEIES | -2.14
HMKVSKNKIVKGMGFHHVALKAVDFDASFKFYTEGLGMKFYTSWGEGNGKIAMLDLGDGGILELFA | 0.0409
HMKVTGITDDILQRLKQQKGYLMLSDKSSPDEIYAAFGVSKKVFKQAIGTLFKQRQIIIEEQGIRLAN | -1.3
HMKVTQDIIFKRNGEEIKSKVLEITPDLIIYIDYSRADNIAREINISEVNMIIYKNGTSEIFSRPEE | -1.69
HMKVTTGIDGLIGEEGVALSDFSGKGKIMVHGEIWNAEFSGEVKKGEVLLVEKANGMTLITRKKN | ≥ 1.04
HMKYKWLAGQLRRELLENGGKKGYKLPTELELARRYQLSRQTVRRALQLLEEEGLILRRQGSGAYATGKPP | -0.729
HMKYLREEDYLPIGSIIRLDDRNFRVDHVNFMFKSVSLQDMDLTNSGQPIFRSESLPHIRELYEQQQNELV | -0.877
HMKYYIYQGLGDSGELTKIAEVTDVKTYTATGLEANTKYRFAVSAYNGLRESSKSNIITVTT | 0.0116

Sequence | soluble fraction (log2)
HMLADIGGRIADLRREVGLTQGELAEKADISVVHLSNIELGKKTPGLSTLIRIAEALDVATDWILQA | -1.38
HMLAFDKDDSGAVAEIILVLGRYWMDFSHKKYPAAEGVALRHKGLSHIFTVLRPYLSTPASELIGERLRR | -0.0618
HMLAGVDTLADRELEVFQMLGRGKSTKEIAQVLNLGESTVETYRARIKEKLQLRSAAELYLRAGQWVRDHG | -1.09
HMLAIKKGGIFAILGPNGSGKSTFSKVLAGHPAYTVVDGDIFFKGLSILDLEPEERSHLGIFLAFQ | -0.286
HMLAKRYLVYGSGSLNSAYPDTKNIAYGIDSGKGFFLVGILTENEASKLKLKGYYVIEDFPLDFH | -1.45
HMLAPLAEMRGDTLDRLEKAVLELFSSRDFHEVSLQDVARRANVSLQTIYKYFGSKEALVYTMLDTLLGR | -0.416
HMLAQVSDEGPIRAMVEAVMARSTQQLEDYKNGKVKLRQYFFGEVMKAAKGKANPTVINKLLDEMLPETL | -0.314
HMLAQYPGQVFSKEQIYNQVWKEPYYGVEDNVMSLIRRIRKKIEPDPSRPIYILTVWGIGYKFNN | 0.0812
HMLARFSGIALNTWTQADVERTFGPPMLVERVARFDGDIWTYRFMDDYEPRMAHIHIDRAGTVRQLVF | -2.86
HMLAVEKIEFVGNERIAAADLESALSALYDRPMTTISDDEIAKLLSGFSLIETFTSQAEPPHTLRVNIRE | 0.083
HMLDEKFLSELMLALLRNHRRGLRAEVLLHKVRSNMELDGYKSLLVGVGRMEMWELAREIIDFVKAEG | -4.4
HMLDGFEVGMTVMRKPGTETGFTGWPPFADKDEFPVIERIDTSDSTLLLRFNDTSWWINASLVEPSDV | -2.19
HMLDIPEVGQAVQVRGRLGTVFSVAPYDGREGRLHLVTVDYLDDARPPENDEILWEIESGARILG | -0.698
HMLDLNEVEFYAIENQLKENLKIDSKRFYELVPLIKGYQEDDIIQVLRWLIDNNRIIRHKDESLTWHS | -1.68
HMLDLSEEEQKIVSILEKQGNLQINSLVVEADIPVHKINAILFELEMKGVVRVLALSLIHISEP | 0.149
HMLDPVLQREKDESFTDYHIRLFKNKDTYHIDTKTIATLLNKDQGTNYDESKWRKDFKQYERWNDYIMSKN | 0.116
HMLDPYNVLGVPRDAGMDEIKKAYRKLSRTYHPDANIDNPNKAQAEEKFKQIQEAYQQIVKERTE | -0.0272
HMLDQAVPVFETPKYAVSYIQNRLVEMKAASPEEAASRFYESISESERRGLFEALLIKEAEES | 0.0105
HMLDQGTQSRYQIMDGVRALITGDWSSHGAGLVRELSQEVARTSGLTATSERTFFVPFSALS | 0.00593
HMLDSDARRRGLIEYLSLNGYATMRQLAGEFDVSINTIQRDITYLARYYPLETAYGRYGGGVYFEQNWQ | -1.44
HMLDSGNPILPYKLSLLANVDIRTVRNAISAGELVAFKSEFDGEVYVENGSARRWLHGRRGFKPTLK | -2.56
HMLDSNILTLIKELKIRHHFTATQTHQLEKVIQQAHALGLDNSEIRSLANSSPSAKSLINDLNQKLEPLRL | -1.44
HMLDTELEANLRSQRDQKLVEELDPIVTNPLRWAELTSDKQTEWTQYRTDLLNVPQQSGFPTNVTWPEKP | 0.216
HMLDVFSAEQVADVLSVSKRNLETWANNGKLIPDFIHGEVALYSKKQLEQFEQFQRFFNSSWDAERLIQP | -1.54
HMLDVGDQLVKKLKDNDSLDFHFVNSKEANKGLKDGDYYMVITIPSNFSKNATTLLDKNPKKMVLNYTTNP | -0.0273
